In experiment [1] the target is T1, cynomolgus monkey ZIP12-ECD-GST (cynomolgus monkey, UniProt Q95KA5 24-207).
T1 construct: extracellular domain; also called cyno ZIP12 fusion protein; cynomolgus monkey ZIP12-GST-ECD; not shown: glutathione S-transferase (GST) tag
Briefly: SPR single cycle kinetics, mAb captured on protein A, ZIP12-ECD-GST injected; cynomolgus monkey ZIP12-ECD-GST; Example 8 cross-species SCK (FIG. 12 average). An excerpt:
(§1) Surface plasmon resonance (SPR) is a label free biophysical technique that allows the direct measurement of biomolecular interactions. A single cycle kinetics (SCK) SPR direct binding assay was developed to characterise antibody binding to human, cyno, pig and canine ZIP12 fusion proteins. This assay was used to characterise the binding kinetics of the monoclonal antibody, 51B12 W99H_L1 against each of the four proteins (defined by kon, koff, KD). Single Cycle Kinetics (SCK) involves first capturing the mAb onto the protein A sensor surface and then sequentially injecting a series of concentrations of ZIP12-ECD-GST over the surface starting at the lowest concentration and ending with the highest concentration. The final concentration is followed by a dissociation phase where buffer only is passed across the surface followed by regeneration, where the remaining bound huZIP12-ECD-GST is removed from the surface by injection of a 10 mM Glycine pH 1.5 and 50 mM NaOH solution. The SCK is repeated for each monoclonal antibody providing duplicate data and the kinetics of each interaction is evaluated by the Biacore software.

The target of experiment [2] is T2, huZIP12-ECD-GST (human, UniProt Q504Y0 24-202).
T2 construct: also called hZIP12-ECD-GST; human ZIP12-ECD-GST; not shown: glutathione S-transferase (GST) tag
Briefly: SPR single cycle kinetics (Biacore): mAb captured on protein A, huZIP12-ECD-GST injected at 3.12-800 nM. Here is the method:
(§2) Single Cycle Kinetics (SCK) involves first capturing the mAb onto the protein A sensor surface and then sequentially injecting a series of concentrations of huZIP12-ECD-GST over the surface starting at the lowest concentration and ending with the highest concentration. The final concentration is followed by a dissociation phase where buffer only is passed across the surface followed by regeneration, where the remaining bound huZIP12-ECD-GST is removed from the surface by injection of a 10 mM Glycine pH 1.5 and 50 mM NaOH solution. The SCK is repeated for each monoclonal antibody providing duplicate data and the kinetics of each interaction is evaluated by the Biacore software.
Referring to FIG. 6, there are shown the kinetic parameters obtained for all antibody variants when screened with the 3.12 nM to 800 nM huZIP12-ECD-GST. […] Affinity.
(In SPR one partner is held on a chip, and binding of the other changes the refractive index at the surface.)

Experiment [3] concerns the target T3, HEL19 33-51 SEQ ID No: 243.
T3 construct: alpha-helical mimic
T3 peptide: CDSRCRGSSGQPADLLQVL
Briefly: peptide-array ELISA on mimics of the human ZIP12 ECD (peroxidase conjugate, ABTS, CCD read-out); antibody concentration of this value not given. Here is the method: (§3) The binding of antibody to each of the synthesized peptides was tested in a peptide-based ELISA. The peptide arrays were incubated with primary antibody solution (overnight at 4° C.). After washing, the peptide arrays were incubated with a 1/1000 dilution of an appropriate antibody peroxidase conjugate for one hour at 25° C. After washing, the peroxidase substrate 2,2′-azino-di-3-ethylbenzthiazoline sulfonate (ABTS) and […] of 3 percent H2O2 were added. After one hour, the colour development was measured. The colour development was quantified with a charge coupled device—camera and an image processing system.

The target in experiment [4] is T4, LIN15 34-48 SEQ ID No: 223.
T4 peptide: SRSRGSSGQPADLLQ
Described as above. Here is the method:
as §3

The target of experiment [5] is T5, LIN15 36-50 SEQ ID No: 225.
T5 peptide: SRGSSGQPADLLQVL
Described as above. On the procedure: as §3

Experiment [6] has as its target T6, LIN15 35-49 SEQ ID No: 224.
T6 peptide: RSRGSSGQPADLLQV
The experiment is described as above. Here is the method: as §3

Experiment [7] has as its target T7, LOOP15 37-51 SEQ ID No: 240.
T7 construct: constrained mimic
T7 peptide: CRGSSGQPADLLQVC
Described as above. On the procedure:
as §3

The target of experiment [8] is T8, HEL19 32-50 SEQ ID No: 242.
T8 construct: alpha-helical mimic
T8 peptide: CQDSCSRGSSGQPADLLQV
Described as above. On the procedure:
as §3

Experiment [9] deals with T2, huZIP12-ECD-GST. As to the kind of experiment: SPR single cycle kinetics, mAb captured on protein A, ZIP12-ECD-GST injected; human ZIP12-ECD-GST; Example 8 cross-species SCK (FIG. 12 average).
From the text: as §1

The target of experiment [10] is T2, huZIP12-ECD-GST. Briefly: SPR single cycle kinetics (Biacore): mAb captured on protein A, ZIP12-ECD-GST injected; average data.
For experiment [11], the target named is T1, cynomolgus monkey ZIP12-ECD-GST. The experiment is described as above.
For experiment [12], the target named is T2, huZIP12-ECD-GST. Briefly: SPR single cycle kinetics (Biacore): mAb captured on protein A, huZIP12-ECD-GST injected at 2.34-600 nM, extended dissociation. On the procedure:
as §2
A selection of the higher affinity antibody variants were re-tested at a lower concentration series with an extended dissociation time with the objective of obtaining a better assessment of the binding kinetics. Referring now to FIG. 7, there are shown the data for the monoclonal antibodies that were re-tested to optimise the binding kinetic data. Once again, three antibody variants, H3_W99H_L1, H3_W99HL2 and H3_W99H_VL-par, all appear to have a higher affinity than the parent antibody. The on-rate (ka), off-rate (kd) and overall affinity measurement (KD) are all improved compared to the 51B12 VH_VL_par parent antibody.

T1 sequence (Q95KA5 24-207): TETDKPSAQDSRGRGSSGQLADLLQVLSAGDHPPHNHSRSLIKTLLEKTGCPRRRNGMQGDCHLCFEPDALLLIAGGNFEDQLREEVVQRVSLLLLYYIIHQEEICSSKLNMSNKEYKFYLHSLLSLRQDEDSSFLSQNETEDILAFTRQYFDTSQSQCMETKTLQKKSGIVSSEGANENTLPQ
T2 sequence (Q504Y0 24-202): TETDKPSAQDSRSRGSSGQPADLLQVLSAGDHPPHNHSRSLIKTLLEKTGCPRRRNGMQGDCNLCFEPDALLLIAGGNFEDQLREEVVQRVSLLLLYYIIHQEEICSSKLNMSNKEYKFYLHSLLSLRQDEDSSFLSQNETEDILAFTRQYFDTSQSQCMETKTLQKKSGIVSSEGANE

B1: H3_W99H_L1 (antibody, V domains shown)
VH: QVQLVESGGGVVQPGRSLRLSCAASGFTFSDYGMHWVRQAPGKGLEWVAYISSGGTTIYYADTVKGRFTISRDNSKNTLYLQMNSLRAEDTAVYYCARHTNLYAMDYWGQGTTVTVSS
VL: DIVLTQSPDSLAVSLGERATINCRASKSVSTQGYSYMHWYQQKPGQPPKFLIYLASNLESGVPDRFSGSGSGTDFTLTISSLQAEDVAVYYCQHSREVPYTFGGGTKVEIKR
notes: Fc null human IgG1 / human kappa
On to B1, for which the Kd (as a rule, a measure of binding affinity in units of concentration) worked out at 6.31 nM in experiment [1], 0.533 nM with huZIP12-ECD-GST [2], 4.02 nM with huZIP12-ECD-GST [9] and 0.314 nM with huZIP12-ECD-GST [12]. The koff (commonly the rate constant with which the complex falls apart) with huZIP12-ECD-GST [2] was found to be 4.98e-05 s⁻¹; with huZIP12-ECD-GST [10], 0.000261 s⁻¹; in experiment [11] it was 0.000218 s⁻¹; in the experiment with huZIP12-ECD-GST [12], 3.14e-05 s⁻¹. Besides, the association rate constant (kon) (commonly the rate constant with which the complex forms) was determined as 93400 M⁻¹ s⁻¹ with huZIP12-ECD-GST [2], 64900 M⁻¹ s⁻¹ with huZIP12-ECD-GST [10], 34600 M⁻¹ s⁻¹ in experiment [11] and 99900 M⁻¹ s⁻¹ in the experiment with huZIP12-ECD-GST [12]. The value in experiment [3] was 2610; in experiment [4], 1650; in experiment [5] it was 2650; in [6], 2460; in experiment [7], 1830; in experiment [8], 2140.

For the origin of these results see US20260109761A1 (IP2IPO INNOVATIONS, published 2026).
